Laboratory results taken from PMC11437124 (Nature Communications, 2024).

B1: R18-11-01 (antibody, V domains shown)
VH: AVQLVESGGGLVQPKESLKISCAASGFTFINAAIYWVRQAPGKGLEWVARIRTKPDNYATYYADSVKGRFTISRDDSKSMVYLQMHNLKTEDTAMYYCTAATTGIKFDYWGQGVMVTVSA
VL: DIVMTQSPSSLAVSAGETVTIDCKSSQSLLYSGNQKTYLAWYQQKPGQSPKLLIYWASTRQSGVPDRFIGSGSGTDFTLTISSVQAEDLAIYYCQQYYDTPLTFGSGTKLEIK
B2: R18-11-11 (antibody, V domains shown)
VH: AVQLVESGGGLVQPKESLKISCAASGFTFSNAAMHWVRQAPGKGLEWVARIRTRPNNYATYYADSVKGRFTISRDDSKSMVYLQMDNLKTEDTAMYYCTAGTGSSPFAYWGQGTLVTVSS
VL: DIVMTQSPSSLAVSAGETVTIDCKSSQSLLYSGNQKTYLAWYQQKPGQSPKLLIYWASTRQSGVPDRFIGSGSGTDFTLTISSVQAEDLAIYYCQQYYDTPLTFGSGTKLEIK
B3: R18-11-02 (antibody, V domains shown)
VH: AVQLVESGGGLVQPKESLKISCAASGFTFSNAAMYWVRQAPGKGLEWVARIRTKPNNYATYYADSMKGRFTISRDDSKSMVYLQMGNLKTEDTAMYYCTAELITTAFDYWGQGVMVTVSS
VL: DIVMTQSPSSLAVSAGETVTIDCKSSQSLLYSGNQKTYLAWYQQKPGQSPKLLIYWASTRQSGVPDRFIGSGSGTDFTLTISSVQAEDLAIYYCQQYYDTPLTFGSGTKLEIK
B4: R18-12-17 (antibody, V domains shown)
VH: AVQLVESGGGLVKPKESLKISCAASGFTFSNAAMYWVRQAPGKGLDWVARIRTKPYNYATFYADSVKGRFTISRDDSKNMVYLQMDNLKTEDTAVYYCTTDGEPRPRFAYWGQGTLVTVSS
VL: DIVMTQSPSSLAVSAGETVTIDCKSSQSLLYSGNQKTYLAWYQQKPGQSPKLLIYWASTRQSGVPDRFIGSGSGTDFTLTISSVQAEDLAIYYCQQYYDTPLTFGSGTKLEIK
B5: R18-11-10 (antibody, V domains shown)
VH: AVQLVESGGGVVRPKESLRISCAASGFTFSNVAMYWVRQAPGKGLEWVARIRTKPNNYATNYADSVKGRFTISRDDSNSMVNLQMENLKTEDTAMYYCTAVGGHNWFAYWGQGTLVTVSS
VL: DIVMTQSPSSLAVSAGETVTIDCKSSQSLLYSGNQKTYLAWYQQKPGQSPKLLIYWASTRQSGVPDRFIGSGSGTDFTLTISSVQAEDLAIYYCQQYYDTPLTFGSGTKLEIK
B6: R18-11-07 (antibody, V domains shown)
VH: AVQLVESGGGLVQPKESLRISCAASGFTFSNAAMYWVRQAPGKGLEWVARIRTKPNSYAPYYADSVRGRFTISRDDSKSMVYLQMDNLKTEDTAMYYCTAGGNSGYSDYWGQGVMVTVSS
VL: DIVMTQSPSSLAVSAGETVTIDCKSSQSLLYSGNQKTYLAWYQQKPGQSPKLLIYWASTRQSGVPDRFIGSGSGTDFTLTISSVQAEDLAIYYCQQYYDTPLTFGSGTKLEIK
B7: R18-12-18 (antibody, V domains shown)
VH: AVQLVESGGGLVQPKESLKISCAASGFTFRNAAMFWVRQAPGKGLEWVARIRTKPNNFATYYADSVKGRFTISRDDSKSMVYLQMDNLKTEDTAMYYCTGFYNDGAPFDYWGQGTLVTVSS
VL: DIVMTQSPSSLAVSAGETVTIDCKSSQSLLYSGNQKTYLAWYQQKPGQSPKLLIYWASTRQSGVPDRFIGSGSGTDFTLTISSVQAEDLAIYYCQQYYDTPLTFGSGTKLEIK
B8: R18-12-14 (antibody, V domains shown)
VH: AVQLVESGGGLVQPKESLKISCAVSGFTFTNAAMYWVRQAPGKGLEWIARIRTQPNNYATYYADSVRGRFTTSRDDSKSMVYLQMDNLKTEDTAMYYCTAGRATGTPFDYWGQGVMVTVSS
VL: DIVMTQSPSSLAVSAGETVTIDCKSSQSLLYSGNQKTYLAWYQQKPGQSPKLLIYWASTRQSGVPDRFIGSGSGTDFTLTISSVQAEDLAIYYCQQYYDTPLTFGSGTKLEIK
B9: R18-11-03 (antibody, V domains shown)
VH: AVQLVESGGGLVRPKESLKISCAASGFTFSNAAMYWVRQAPGKGLEWVARIRSKPNNYATHYADSVKGRFIISRDDSKGMVYLQMDNLKTEDTAKYYCTAAGGGYGFDDWGQGVMVTVSS
VL: DIVMTQSPSSLAVSAGETVTIDCKSSQSLLYSGNQKTYLAWYQQKPGQSPKLLIYWASTRQSGVPDRFIGSGSGTDFTLTISSVQAEDLAIYYCQQYYDTPLTFGSGTKLEIK
B10: R18-11-04 (antibody, V domains shown)
VH: AVQLVESGGGLVQPKESLKISCAASGFTFSNAAMYWVRQAPGKGLEWVARIRTQPNNYATYYADSVKGRFTISRDDAKSMVYLQMDNLKTEDTAMYYCTAGTVEVTSTWWGQGVMVTVSS
VL: DIVMTQSPSSLAVSAGETVTIDCKSSQSLLYSGNQKTYLAWYQQKPGQSPKLLIYWASTRQSGVPDRFIGSGSGTDFTLTISSVQAEDLAIYYCQQYYDTPLTFGSGTKLEIK
B11: R18-11-13 (antibody, V domains shown)
VH: AVQLVESGGGLVQPKESLKISCAASGFTFSNVAMYWVRQAPRKGLEWVARIRTKPNNYATYYADSVKGRFTISRDDSKSMVYLQMDNLKTDDTAMYYCTAGVYYGSMDAWGQGTSVTVSS
VL: DIVMTQSPSSLAVSAGETVTIDCKSSQSLLYSGNQKTYLAWYQQKPGQSPKLLIYWASTRQSGVPDRFIGSGSGTDFTLTISSVQAEDLAIYYCQQYYDTPLTFGSGTKLEIK
B12: R18-11-12 (antibody, V domains shown)
VH: AVQLVESGGGLVQPKESVKISCAASGFTFSNAAMYWVRQAPGKGLEWIARIRSKPHNHATYYADSVKGRFTISRDDSESMVYLQMDNLKTEDTAMYYCTSDTGPNWFTYWGQGTLVTVSS
VL: DIVMTQSPSSLAVSAGETVTIDCKSSQSLLYSGNQKTYLAWYQQKPGQSPKLLIYWASTRQSGVPDRFIGSGSGTDFTLTISSVQAEDLAIYYCQQYYDTPLTFGSGTKLEIK
B13: R18-11-05 (antibody, V domains shown)
VH: AVQLVESGGGLVQPKASLKISCVASGFTFSKNAMYWVRQAPGKGLEWVARIRTKPNNYAAYYADSVKGRFTISRDDSESMVYLQMDNLKTEDTAMYYCTAGDFNSPFDFWGQGVMVTVSS
VL: DIVMTQSPSSLAVSAGETVTIDCKSSQSLLYSGNQKTYLAWYQQKPGQSPKLLIYWASTRQSGVPDRFIGSGSGTDFTLTISSVQAEDLAIYYCQQYYDTPLTFGSGTKLEIK
B14: R18-11-08 (antibody, V domains shown)
VH: AVQLVESGGGLVQPKESLKISCAASGFTFSNAAMYWVRQAPGKGLEWVARIRTKPNNYATYYADSVKGRFTISRDDSKSMVYLQMDNLKTEDTAMYYCTAAYYSGPFAYWGQGTLVTVSS
VL: DIVMTQSPSSLAVSAGETVTIDCKSSQSLLYSGNQKTYLAWYQQKPGQSPKLLIYWASTRQSGVPDRFIGSGSGTDFTLTISSVQAEDLAIYYCQQYYDTPLTFGSGTKLEIK
B15: R18-11-06 (antibody, V domains shown)
VH: AVQLVESGGGLVQPKESLKISCAASGFTFSNAAMYWVRQAPGKGLEWVARIRTQPNNYATYYADSVKGRFTISRDDSKSVVYLQMDNLKTADTAMYYCTAGYGYNLFDYWGQGVMVTVSS
VL: DIVMTQSPSSLAVSAGETVTIDCKSSQSLLYSGNQKTYLAWYQQKPGQSPKLLIYWASTRQSGVPDRFIGSGSGTDFTLTISSVQAEDLAIYYCQQYYDTPLTFGSGTKLEIK

Molecular target: human TREM2 extracellular domain (ECD) (Homo sapiens, UniProt Q9NZC2)
Sequence (Q9NZC2 19-174): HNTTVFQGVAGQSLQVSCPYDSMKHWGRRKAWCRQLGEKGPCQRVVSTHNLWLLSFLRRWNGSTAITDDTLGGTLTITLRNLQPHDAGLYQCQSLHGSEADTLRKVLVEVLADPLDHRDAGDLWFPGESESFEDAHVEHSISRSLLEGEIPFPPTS

Binding result, binds:
B1, B2, B3, B4, B5, B6, B7, B8, B9, B10, B11, B12, B13, B14, B15
